Assay: soluble on expression in E. coli; label from the status in PepcDB or PDB records

Soluble on expression in E. coli, soluble:
LTVGDWLDSIRMGRYRDHFAAGGYSSLGMVLRMNAQDVRALGITLMGHQKKILGSIQTMRAQLTSTQG
MGHHHHHHHHHHSSGHIEGRHMILLEKTQEKKINDKEELIVKEEVETNWDYGCNPYERKIEDLIKYGVVVVDKPRGPTSHEVSTWVKKILNLDKAGHGGTLDPKVTGVLPVALERATKTIPMWHIPPKEYVCLMHLHRDASEEDILRVFKEFTGRIYQRPPLKAAVKRRLRIRKIHELELLDKDGKDVLFRVKCQSGTYIRKLCEDIGEALGTSAHMQELRRTKSGCFEEKDAVYLQDLLDAYVFWKEDGDEEELRRVIKPMEYGLRHLKKVVVKDSAVDAICHGADVYVRGIAKLSKGIGKGETVLVETLKGEAVAVGKALMNTKEILNADKGVAVDVERVYMDRGTYPRMWKRKK
EIEKGGCGDPGIPAYGKRTGSSFLHGDTLTFECPAAFELVGERVITCQQNNQWSGNKPSC
MSLTIKLITFDLDDTLWDTAPVIVSAEATLRQWLTEHAPNLGGVPVEHLWAIRERVLLAQPNLKHRISALRRQVLFHALEEAGYDHAQANQLADQSFEVFLHARHQLEIFPEVQPTLEALANHFALGVVTNGNADVRRLGLADYFKFALCAEDIGIAKPDARLFHEALQRGEATADTAVHIGDHPGDDIAGAQQAGLRAIWFNPNGKTWEAEHAPDAEIRSLNELPGLLARWHRGAEGHHHHHH
KGMIRPRGLNQQRYVKEVLSNDINFGIGPAGTGKTYLAVACAVDALEREQIRRILLVRPAVEAGEKLGFLPGDLAQKIDPYLRPLYDALYEMLGFEYVAKLIEKQVIEVAPLAYMRGRTLNNSFIILDESQNTTVEQMKMFLTRIGFGSTAVITGDITQVDLPKGTRSGLTHVIDVLKDVPGISFTHFKPKDVVRHPLVQRIVEAYERFDDQLSDGPSGNNG
QAVVTQESALTTSPGETVTLTCRSSTGAVTTSNYANWVQEKPDHLFTGLIGGTNKRAPGVPARFSGSLIGDKAALTITGAQTEDEAIYFCALWDSNHLVFGGGTKLTVLGQPKSSPSVTLFPPSSEELETNKATLVCTITDFYPGVVTVDWKVDGTPVTQGMETTQPSKQSNNKYMASSYLTLTARAWERHSSYSCQVTHEGHTVEKSLSPADC
GHMSTPLTLIATITAAPGHAEALERELRALVAPSRAEAGCLQYDLHQDRHDSHLFYMIEQWRDDAALERHQNTEHFLRFSRGNEALLQNVKIDQLYRLA
MEKSLVDTVYALKDEVQELRQDNKKMKKSLEEEQRARKDLEKLVRKVLKNMNDPAWDETNL
MSLLIETTMTFLCPLCEHPLTLNQNTYACINRHQFDVAKEGYVNLMPVQHKRSKDPGDNKEMTQARRRFLHTGHYAPMREKVATLCQTYLTDRQQTLLDIGCGEGYYTDFFAKALRQQDSEAQIFGLDISKIAIRYAAKRYPECQFAVASSHRLPFANQSLDGVIRIYAPCKDTELERCIKIGGIVITVTPAARHLYQFKQGIYDQVRLHEEQPETLSGFELVEECKLHYPMALNGSEAADLLQMTPFAWRASEDFKHRVSQSDTFECEADFMLRVYRRKEGHHHHHH
MAMNLLEDWCRGMEVDIHRSLLVTGIPEDCGQAEIEETLNGVLSPLGPYRVLNKIFVREENVKAALIEVGEGVNLSTIPREFPGRGGVWRVVCRDPTQDAEFLKNLNEFLDAEGRTWEDVVRLLQLNHPTLSQNQHQPPENWAEALGVLLGAVVQIIFCMDAEIRSREEARAQEAAEFEEMAAWALAAGRKVKKEPGLAAEVGSALKAETPNNWNATEDQHEPTKPLVRRAGAKSRSRRKKQKKNSRQEAVPWKKPKGINSNSTANLEDPEVGDAESMAISEPIKGSRKPCVNKEELALKKPMAKCAWKGPREPPQDARAEAESPGGASESDQDGGHESPPKKKAVAWVSAKNPAPMRKKKKVSLGPVSYVLVDSEDGRKKPVMPKKGPGSRREASDQKAPRGQQPAEATASTSRGPKAKPEGSPRRATNESRKV
MTESTLAFVFPGQGSQSLGMLAELSELHPQIRETFAEASEGAGVDLWALSQGGPEEMLNRTEYTQPALLAAGVAVWRLWTAQRGQRPALLAGHSLGEYTALVAAGVLSLHDGAHLVRLRGQFMQAAAPAGVGAMAAVLGAEDAVVLEVCAEAAGSQVVVPANFNSPGQIVIGGDAAAVDRALALLAERGVRKAVKLAVSVPSHTPLMRDAANQLGEAMAGLSWHAPQIPVVQNVDARVHDGSAAIRQALVEQLYLPVQWTGCVQALASQGITRIAECGPGKVLSGLIKRIDKSLDARPLATPADYAGALDAWAH

Soluble on expression in E. coli, not soluble:
MGSDKIHHHHHHVTALSIIKEAEHSLQMLFNELEEIAYTNQVRVIEAFHKHRVREYYFYPSTGYGYGDSGRDALEDIFADIFGTEDALVRSQVVSGTHAISACLFALLRPGDELISLTGSPYDTLCRIIGHEEKSPGTLIDKGIKYSEVDLDERGKPDLTAIAAAIKDTSRMVLIQRSRGYKTRPPVDLDTIAAITKLVKARNPATIVMLDNCYGEFTAVQEPGHYGVDIIAGSLIKNPGGGLIPSGGYIAGNQDLIEQLAFHLTAPGLGKELGASLLDKRIMYQGLFLAPHTVLQALKGAVLLAYVFEEHGYEVFPRWNEKRSDIVQAVKLRDAAEVLRFCQEVQNASPVDSDVTLEYGELPAYRDKIVMAAGTFVQGSSIELSCDAPLRSPHCVFLQGGLSYEHCRFLLQRLLDRFLLANA
MMLNNFETDSIFTPEQVLENRGRVAIFIDGSNLFYAALQLGIEIDYTKLLCRLTGGSRLLRSFFYTGVDRTNEKQQGFLLWMRRNGYRVIAKDLVQLPDGSKKANLDVEIAVDMMALVDSYDTAVLVSGDGDLAYAVNSVSYRGVRVEVVSLRSMTSDSLINVSDRYIDLEAIKEDIQKTPRQSYPYRPLSGIGFLEDPRTSDGHLEIQE
SNRLGIPALSGDTLSLLNTPSEILNAIISDIEKAEHEINMEFYIWHHGGLADSVASALIVAAKRGVTVNVLLDSAGSMDFFKSHWPKLLKQSGVNIVEALSVSPFRMFFRRLDLRLHRKIVVIDNRIAYTGSMNLVDPQYFKQNSGVGQWIDVMVRLTGPNVAILNTIHAWDWEVETGIRELPHLPECPASIDPFNHTTQVVPSGPGMPDDIIQQV
MGSDKIHHHHHHMTINQEHLTDCKLCKAHSWELVATLISGIWDKRHDELNREELRFPIGQCTKCHHVQVAIPYTQSIFDSLYFSNQAEPDMWCETPNGQKSPYEEMLEFIAPYIQDGAHIVDFGAGAGTTLKHIENTHKERQLTLASVDFHNHIQSETIEYLSADLNKLEALQAEFVTQPISLAISTHVLEHLIDPIHFLTQIRSMLSDDGHIFIEVPDCSPDAFIEHLAFTNLVHGQHIHYYSKDSLAQIARLAGLKIDALQQLTTGDIPRLLILLSKTTQESSTTVLPVTSGADVAVVKRFNDYHAFQDSLFKQIQQALMLNDTIGIWGIGGDFYQLTQSYPELIDLIQANSIILYDYELAGHTYVGSSIRCSSAIASTRYPVFMLPLYAPTREKMHQVSQSWSAQVIDPF
MTSVGVPIKILHEAEGHMVTLETVTGEVYRGKLSEAEDNMNCQLAETVVTFRDGRSHQLDNVFIRGNKIRFMILPDMLKNAPMFKNIGRAQKGAIGMGLGGLDQRGRGRGTAFRRPMGRGGPRGMSRPGGAPTFRG
STAKNSPKEFTASESEVCIKTFKEQMRLELELPKLPGNRPTSPKISPRSSPRNSPCFFRKLLVNKSIRQRRRFTVAHTCFDVENGPSPGRSPLDPQAGSSSGLVLHAAFPGHSQRRESFLYRSDSDYDLSPKAMSRNSSLPSEQHGDDLIVTPFAQVLASLRSVRNNFTLLTNLHGAPNKRSPAASQAPVSRVSLQVCDHRRLTKCRESKRC
MKGLCSSDTRQYLPGHQLWEAPVQIRRYSAVIHHATKCQWGVIPSRTINVSLHQTRRMRVAAVGIGGAGGRIVERLWQDNERRETTYLGAACAVDTDTEALDELDALPADRRYAFGLSETNGTGTNGDRTSGTAAIEDERLEVRRAIDELVTSDIDAVVLVAGLAGGTGSGATAHIADALREVYSIPVYCLSVLPAGRDDDAAANTMQALRALESTVDGQILFDNEAWLGSGQTVESASETLNETIVARLGALFAAGEATAPDAVGQSVVDASEIINTLSDAGFTTLGYASQDLQTGAGSGDGTVIDQLKNRFLGDNADDVDEIEAYNAVETTLRRAVRGKLTAQCELDSADRALAVFAGPPAWLIRDAVTDGRRWLTEELQSPEVRSGLEHHHHHH
MGSDKIHHHHHHMKYSPASETIFVADNQERTMRVEVMEHYGLTQSIEQAGYYETAHHKQLMKDIKGAIREGRLIAVCGVVGSGKTVTLRRLQQQLLDENKIIVARSLSVDKQSVRLATLINALFYDLAQDKQVQIHKQGERRERELQELVKKGKRPVALFVDEAHDLNGNTLTGLKRLMEVVEDGGGRLSVVLAGHPKLRNDLRRPTMEEIGYRTDIFTLDGITGSQREYIQWLLKTSTGKGKPEDILTTEAVDLLAMKLRTPLQVQLHLTLAMEAGYQTGEKPITATLVESVLSRQLDDLEPTLTRHGYRLKDMVEQFDAKPAEIRALFNNQLDPARTAELRDRMLAVGLPI
MGSDKIHHHHHHMTWNTPKPGEWKSEELSKGRIIDYKAFNFVDGEGVRNSLYVAGCMFHCEGCYNVATWSFDAGIPYTQELEEQIMEDLAQPYVQGLTLLGGEPFLNTGILLPLLKRIRKELPEKDIWSWTGYTWEELMLETPDKLEMLNLLDILVDGRFDKSKKNLMLQFRGSSNQRIIDVPKSLASGQVVIWDKLNDGKQTYEQIDRDGLI
MIKRFLEDTTDDGELSKFVKDFSGNASCHPPEAKTWASRPQVPEPRPQAPDLYDDDLEFRPPSRPQSSDNQQYFCAPAPLSPSARPRSPWGKLDPYDSSEDDKEYVGFATLPNQVHRKSVKKGFDFTLMVAGESGLGKSTLVNSLFLTDLYRDRKLLGAEERIMQTVEITKHAVDIEEKGVRLRLTIVDTPGFGDAVNNTECWKPVAEYIDQQFEQYFRDESGLNRKNIQDNRVHCCLYFISPFGHGLRPLDVEFMKALHQRVNIVPILAKADTLTPPEVDHKKRKIREEIEHFGIKIYQFPDCDSDEDEDFKLQDQALKESIPFAVIGSNTVVEARGRRVRGRLYPWGIVEVENPGHCDFVKLRTMLVRTHMQDLKDVTRETHYENYRAQCIQSMTRLVVKERNRNKLTRESGTDFPIPAVPPGTDPETEKLIREKDEELRRMQEMLHKIQKQMKENY
MGSDKIHHHHHHMNEIRVSSWPALHEVLYGESWNPRLGRFRSPFVFRGQSRAEAKLTTTLQRLSGETREIERHLLRNFRKYAYRNGMDRDLPWYWLAVGQHHGLPTRLLDWTTSPLVALHFATAEEDHYSQDGVVWMVNFIRTNERLPAPLKALLEQEGADVFTVDMLTAFSRAHRSQQMPELGQQPSFDLSWLEDLEREAEHPFLLFLEPPSIDERIVQQAALFSLLSDPEAALDDWLVQHPGTAHKVILPADLKWEIRDKLDQSNITERTLFPGLGGLSQALRRYYRVGRDPSQQQGATAEEQAQEMERQN
MAHHHHHHMNGMRAYNLGSRRYHDVLRLQEAIFRKKIDRQMRYIRGDKSARLIPNVVLLVEHSSPVYTIGRRDTSNGIKAGCAAEVVKTRRGGGVTFHGPGQVTMYPIVNVQVLWKQCTASDKPRSPIEWFSSVLEQAMINVAGEYNIPAHRGRVGVWSDSWGDVAPRKMGFVGLQLGNWVSMHGAGLNVSNNLLYFNDIVMCEMPNEAATSLVEELRLRGLSGAEPTPHVIAPRLLHHFLLSMQQQESVVNTELVDLSIDGSWERSILCELE
MDIRQMNRTHLDHWRGLRKQLWPGHPDDAHLADGEEILQADHLASFIAMADGVAIGFADASIRHDYVNGCDSSPVVFLEGIFVLPSFRQRGVAKQLIAAVQRWGTNKGCREMASDTSPENTISQKVHQALGFEETERVIFYRKRC
